Patent publication US20210040232A1 (Regeneron, published 2021)

T1: soluble Macaca fascicularis CTLA-4 expressed with a C-terminal myc-myc-polyhistidine tag (Macaca fascicularis)
T1 construct: soluble protein; also called mf CTLA-4.mmh; mfCTLA4.mmh
T1 chain: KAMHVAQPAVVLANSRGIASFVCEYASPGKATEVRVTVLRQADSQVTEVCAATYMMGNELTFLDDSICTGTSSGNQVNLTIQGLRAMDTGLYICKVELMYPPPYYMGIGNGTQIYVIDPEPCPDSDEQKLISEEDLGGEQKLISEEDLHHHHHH


What was measured:
[1] = biological target: T2, human CTLA-4 (amino acids M1-N223) on stably transfected VI-fibroblast cells (human, UniProt P16410 36-223); experiment: ECL cell binding, VI-fibroblast/hCTLA-4 cells;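 also: antibodies bound to the cells on carbon electrode plates, detected via SULFO-TAG anti-IgG secondary (1 h, RT), electrochemiluminescence read as RLU over a concentration range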
T2 construct: also called VI-fibroblast/hCTLA-4

[2] = biological target: T3, recombinant hCTLA-4-mFc (human CTLA-4 extracellular domain with a C-terminal Fc portion of mouse IgG2a) (human); experiment: competition ELISA, 400 pM hCTLA-4-mFc on plate-coated hB7-2-hIgG1-6His
T3 construct: also called dimeric CTLA-4 protein

[3] = biological target: T3, recombinant hCTLA-4-mFc (human CTLA-4 …); experiment: competition ELISA, 400 pM hCTLA-4-mFc on plate-coated hB7-2-hIgG1-6His; * value below theoretical bottom of assay
[4] = biological target: T3, recombinant hCTLA-4-mFc (human CTLA-4 …); experiment: competition ELISA, 200 pM hCTLA-4-mFc on plate-coated hB7-1-hIgG1-6His
[5] = biological target: T1, soluble Macaca fascicularis CTLA-4 …; experiment: SPR, mAb capture, 25 C
[6] = biological target: T4, soluble human CTLA-4 expressed with a C-terminal myc-myc-polyhistidine tag (human); experiment: SPR, mAb capture, 25 C
T4 construct: soluble protein; also called hCTLA-4.mmh; hCTLA4.mmh

[7] = biological target: T5, hCTLA-4 extracellular domain (aa 1-161) fused to the trans-membrane and cytoplasmic domain of hCD300a (aa … (human, UniProt Q9UGN4 181-299)); experiment: ECL cell binding, Jurkat/NFAT-Luc/hCTLA-4-hCD300a cells
T5 construct: range 181-299; the range as stated begins at residue 1 and so holds the signal peptide; also called Jurkat/NFAT-Luc/hCTLA-4-hCD300a; hCTLA-4/hCD300 chimera

[8] = biological target: T5, hCTLA-4 extracellular domain (aa 1-161) …; experiment: cell-based or functional assay
[9] = biological target: T5, hCTLA-4 extracellular domain (aa 1-161) …; experiment: cell-based or functional assay; remark: listed apart in the source
[10] = biological target: mf CTLA-4 extracellular domain (aa 1-161) fused to the trans-membrane and cytoplasmic domain of hCD300a (aa … (Macaca fascicularis; human, UniProt G7PL88 1-161; Q9UGN4 181-299); experiment: cell-based or functional assay
[11] = biological target: T3, recombinant hCTLA-4-mFc (human CTLA-4 …); experiment: competition ELISA, 200 pM hCTLA-4-mFc on plate-coated hB7-1-hIgG1-6His; * value below theoretical bottom of assay

T2 sequence (P16410 36-223 limits assumed): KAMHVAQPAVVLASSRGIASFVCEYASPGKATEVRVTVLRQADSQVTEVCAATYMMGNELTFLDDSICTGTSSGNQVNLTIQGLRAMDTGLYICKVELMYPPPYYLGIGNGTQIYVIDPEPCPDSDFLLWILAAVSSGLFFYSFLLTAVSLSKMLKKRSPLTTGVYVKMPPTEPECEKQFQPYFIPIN
T3 sequence (chain, as listed by the source limits assumed): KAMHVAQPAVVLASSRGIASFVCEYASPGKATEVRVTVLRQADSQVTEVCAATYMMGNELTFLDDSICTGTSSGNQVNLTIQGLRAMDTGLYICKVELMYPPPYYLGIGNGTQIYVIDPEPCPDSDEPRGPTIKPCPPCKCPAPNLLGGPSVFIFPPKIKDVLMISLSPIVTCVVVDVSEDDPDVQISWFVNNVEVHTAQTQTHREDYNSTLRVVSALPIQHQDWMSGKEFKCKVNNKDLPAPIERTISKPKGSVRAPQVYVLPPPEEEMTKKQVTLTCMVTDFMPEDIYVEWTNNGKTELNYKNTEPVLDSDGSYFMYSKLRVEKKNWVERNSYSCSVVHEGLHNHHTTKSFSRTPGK
T5 sequence (Q9UGN4 other isoform, or with tags, fused parts or gaps limits assumed, form in doubt): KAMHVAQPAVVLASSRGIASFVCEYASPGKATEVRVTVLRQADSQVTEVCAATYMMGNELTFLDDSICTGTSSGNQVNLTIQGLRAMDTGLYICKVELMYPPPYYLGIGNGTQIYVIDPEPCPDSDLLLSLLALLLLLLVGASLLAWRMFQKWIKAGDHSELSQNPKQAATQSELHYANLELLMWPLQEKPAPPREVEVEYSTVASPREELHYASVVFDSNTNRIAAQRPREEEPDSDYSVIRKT

Binder	EC50 [1] [nM]	ratio of RLU signal to parental VI-fibroblast at 0.4 nM Ab [1] [ratio]	% Blockade [2] [%]	% Blockade [4] [%]	IC50 [4] [nM]	Kd [5] [nM]	koff [5] [s⁻¹]	kon [5] [M⁻¹ s⁻¹]	t1/2 [5] [min]	Kd [6] [nM]	koff [6] [s⁻¹]	kon [6] [M⁻¹ s⁻¹]	t1/2 [6] [min]	EC50 [7] [nM]	EC50, T-cell/APC IL-2 release assay, APC HEK293/hCD20/hCD80 [8] [nM]	Fold induction of IL-2 at 100 nM, APC HEK293/hCD20/hCD80 [8] [fold]	IC50 [2] [nM]	EC50, T-cell/APC NFAT-luciferase assay, +Fc Block [9] [nM]	EC50, T-cell/APC NFAT-luciferase assay, -Fc Block [9] [nM]	also measured
H1H19269P (antibody, human IgG1, V domains shown) VH: EVQLVESGGGLVQPGGSLKLSCAASGFTFSGSAMHWVRQASGKGLEWVGRIRGKANSFATAYSASVKGRFTISRDDSKNTASLQMNSLRTEDTAVYFCTREDQQLVRPYYYHYGMDVWGQGTTVTVSS VL: DIQMTQSPSSLSASVGDRVTITCRTSQSITNYLNWYQQKPGKAPKLLIYATASLQSGVPSRFSGSGSETDFTLTISSLQPEDFATYYCQQSYSTPLTFGGGTKVEIK	0.4	15	100	98	0.1	1.22	0.000435	356000	26.6	1.2	0.000474	394000	24.4	–	–	–	–	–	–	IC50 [3]: 0.19 nM
H1H19303P (antibody, human IgG1, kappa, V domains shown, also called REGN4659) VH: EVQLVESGGGLVQPGGSLRLSCAASGFTFSNYEMSWVRQAPGKGLEWVSSIRTSGTTKYYADSMKGRFTISRDNAKNSLYLQMNSLRAEDTAVYYCAGGGTFLHYWGQGTLVTVSS VL: DIQMTQSPSSVSASVGDRVTITCRASQGIASYLAWYQQKPGKAPKLLIYAASSLQTGVPSRFSGSGYGTDFTLTISSLQPEDFATYYCQQAKSFPMYTFGQGTKLEIKR	0.21	20	97	90	180	15.7	0.00245	156000	4.7	16.4	0.00199	121000	5.8	0.29	40.9	5.4	39	1.73	1.61	–
H1H19319P2 (antibody, human IgG1, V domains shown) VH: QVQLVESGGGEVQPGRSLRLSCAASGFTFSSYGMHWVRQAPGKGLEWVAVIWYDGRNKHYVDSVKGRFTISRDNSKNTVYLQMNSLRAEDSAVYYCVRGGQLGAFDYWGQGTLVTVSS VL: not shown	0.24	–	97	85	320	12.9	–	–	4.4	10.2	–	–	7.9	0.28	–	–	43	4.18	2.47	–
H1H19327P2 (antibody, human IgG1, V domains shown) VH: QVQLVESGGGVVQPGRSLRLSCAASGFTSSSYGIHWVRQAPGKGLEWVAVIWYDGSNKYYADSVKGRFTISRDNSKNTLYLQMNSLRAEDTAVYYCARGGPWGAFDIWGQGTMVTVSS VL: not shown	0.29	16	38	7	–	62.4	0.0117	188000	1	66.3	0.000585	8810	19.8	–	–	–	–	5.49	4.2	EC50, T-cell/APC NFAT-luciferase assay, +Fc Block [10]: 5.76 nM
H1H19273P (antibody, human IgG1, V domains shown) VH: QITLKESGPTLVKPTQTLTLTCTFSGFSLSTSGVGVGWIRQSPGRALEWLALIYWNDHERYSPSLKSRLTITKDTSKNLVVLAMANMDPVDTATYFCAHRNIEYRRSYFFDYWGQGTLVTVSS VL: DIQMTQSPSSVSASVRDRVTVTCRASQDINNWLAWYQQKPGKAPKLLIYAASSLQSGVPSRFSGSGSGTDFTLTISSLQPEDFATYYCQQANTFPFTFGPGTKVDIK	–	11	98	98	0.25	0.956	0.000346	362000	33.4	0.966	0.000362	374000	31.9	0.52	33.3	5.1	0.54	3.83	2.74	–

More lines, in order of falling Kd [5], values ahead:

EC50 [1] [nM]	ratio of RLU signal to parental VI-fibroblast at 0.4 nM Ab [1] [ratio]	% Blockade [2] [%]	% Blockade [4] [%]	IC50 [4] [nM]	Kd [5] [nM]	koff [5] [s⁻¹]	kon [5] [M⁻¹ s⁻¹]	t1/2 [5] [min]	Kd [6] [nM]	koff [6] [s⁻¹]	kon [6] [M⁻¹ s⁻¹]	t1/2 [6] [min]	EC50 [7] [nM]	EC50, T-cell/APC IL-2 release assay, APC HEK293/hCD20/hCD80 [8] [nM]	Fold induction of IL-2 at 100 nM, APC HEK293/hCD20/hCD80 [8] [fold]	IC50 [2] [nM]	EC50, T-cell/APC NFAT-luciferase assay, +Fc Block [9] [nM]	EC50, T-cell/APC NFAT-luciferase assay, -Fc Block [9] [nM]	Binder	also measured
–	5	99	98	2	13	0.00121	93100	9.6	13.8	0.00123	88800	9.4	–	–	–	2.5	3.92	2.36	H1H19291P (antibody, human IgG1, V domains shown) VH: QVQLVESGGGVVQPGRSLRLSCAASGFTFSTYGMHWVRQAPGKGLEWVTVIWYDGNNKYYADSVKGRFTISRDNSKNTLYLQMNNLRAEDTALYYCARGGGRLSYYHDYWGQGTLVTVSS VL: DIQMTQSPSSLSASVGDRVTITCRASQSISTFLNWYQQKPGKAPNLLIYGTSSLQSGVPSRFSGSGSGTDFTLTISSLQPEDFAAYYCQQTYSTPFTFGPGTKVDIK	EC50, T-cell/APC NFAT-luciferase assay, +Fc Block [10]: 7.67 nM
0.075	23	100	99	–	2.14	0.00101	472000	11.5	1.53	0.000741	484000	15.6	–	–	–	–	–	–	H1H19281P (antibody, human IgG1, V domains shown) VH: QVQLVESGGGVVQPGRSLRLSCAASGLTFSYYGMHWVRQAPGKGLEWVAVISYDGSNKYYADSVKGRFTISRDNSKNTLYLQMNSLRAEDAAVYYCAKDLGGDDYYGMDVWGQGTTVTVSS VL: EIVLTQSPGTLSLSPGERATLSCRASQSVSRTYLAWYQQKPGQAPRLLIYGAFSRATGIPDRFSGSGSGTDFTLTISRLEPEDFAVYYCQQYGSSPYTFGQGTKLEIK	IC50 [3]: 0.19 nM; IC50 [11]: 0.094 nM
0.16	11	99	98	0.4	0.976	0.000464	475000	24.9	1.55	0.000758	489000	15.2	0.11	21.9	5.7	0.77	3.47	1.69	H1H19313P (antibody, human IgG1, V domains shown) VH: QITLKESGPTLVKPTQTLTLTCTFSGFSLSTSGVGVGWIRQPPGVALEWLALIYWNDDKRFSPSLKSRLTITKDTSKNQVVLTMTNMDPVDTATYYCAHRRLGLYYFDYWGQGTLVTVSS VL: DIQLTQSPSFLSASVGDRVTITCWASQGISSYLAWYQQKPGKAPKLLIYAASTLQSGVPSRFSGSGSGTEFTLTISSLQPEDFATYYCQQVHIYPFTFGPGTKVDIK	–
